From patent publication EP4424820A1 come the findings set out here.

The assay has as its target NRPS-13 subunit B: SZ18 at the N-terminus of the C-terminal part of XtpS, split in the A-T linker of module two (Xenorhabdus nematophila ATCC 19061). The assay is described as follows: cell-based or functional assay.

Sequence of NRPS-13 subunit B: SZ18 at the N-terminus of the C-terminal part of XtpS, split in the A-T linker of module two (Xenorhabdus nematophila ATCC 19061) (chain, as listed by the source): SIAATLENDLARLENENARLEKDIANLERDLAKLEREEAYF

Regarding “NRPS-13 subunit A: N-terminal part of XtpS, split in the A-T linker of module two, with SZ17 at its C-terminus (enzyme)”, the peptide yield of xenotetrapeptide 1 by the split synthetase NRPS-13 produced in E. coli DH10B::mtaA (HPLC-MS/MS) stood at 155 mg/L.
